Experimental findings from patent US20260102461A1 (AIKIUM, published 2026) are described below.

Where a chain is given by its changes, count along the chain named. Like-named read-outs stand apart in the source and are kept apart here. A value given as a limit tells only on which side of the number the result lay.

Assay [1] addresses T1, CD74 disordered region peptide (CLIP), PPKPVSKMRMATPLLMQALPMGALP (biotin (position not given)).
T1 peptide: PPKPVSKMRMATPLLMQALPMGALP
Description: modified sandwich ELISA, fluorescence grade (key: >400000, Strong binding).

The target of assay [2] is T2, CYSLTR2 N-terminal disordered region, MERKFMSLQPSISVSEMEPNGTFSNNNSRNCTIENFKREFFP (biotin (position not given)).
T2 construct: also called CysLT2; CysLT2r
T2 peptide: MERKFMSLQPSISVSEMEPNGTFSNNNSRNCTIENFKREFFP
Description: modified sandwich ELISA, fluorescence grade (key: 50000 < x < 100000, Weak binding).

In assay [3] the target is T3, KAAG1 disordered region peptide, PGAAAAHLPRWPPPQLAASRREA (biotin (position not given)).
T3 peptide: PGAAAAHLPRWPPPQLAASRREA
Briefly: modified sandwich ELISA (scaffold coated, biotinylated peptide, streptavidin-HRP fluorescence). A general note: ELISA stands for enzyme-linked immunosorbent assay.

For assay [4], the target named is T3, KAAG1 disordered region peptide, …. Described as above.
The target in assay [5] is T4, Urotensin-2 receptor (UR-II-R) disordered region, MALTPESPSSFPGLAATGSSVPEPPGGPNATLNSSWASPTEPSSLEDLVATGTI (biotin (position not given)).
T4 construct: also called Urotensin II R; GPCR2 (Urotensin II)
T4 peptide: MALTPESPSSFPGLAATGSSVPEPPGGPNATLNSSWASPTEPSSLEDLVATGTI
Described as above.

For assay [6], the target named is 25 amino acid epitope of CLIP (CD74). Description: BLI (Octet), biotinylated peptide on streptavidin tip, scaffold in solution. For orientation: Biolayer interferometry detects binding as a change in optical thickness at a sensor tip.
Assay [7] has as its target T5, CYSLTR2 Epitope SISVSEMEPNGTFSNNNSRNC (N-terminally biotinylated).
T5 peptide: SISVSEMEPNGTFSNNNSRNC
Briefly: ELISA, scaffold coated on the plate, biotinylated peptide titrated, streptavidin-HRP fluorescence.

Assay [8] has as its target T1, CD74 disordered region peptide (CLIP), …. The description is as above. The protocol: (§1) Binder proteins were coated on the surface of a high binding capacity 96 well plate by incubating 100 μL of protein at […] in a coating solution (10 mM Tris pH 8.8, 50 mM NaCl), overnight at 4 C. The next morning, the coating solution was aspirated out and wells were washed once with 300 μL ELISA wash buffer (lx PBS, 0.05% Tween-20) and solution was aspirated out. The wells were blocked with 200 μL of a blocking buffer (1×PBS, 0.05% Tween-20, 3% BSA) at room temperature for 1 hour. After one hour, the blocking solution was aspirated out and 100 μL of biotinylated polypeptide in a binding buffer (1×PBS, 0.05% Tween-20, 0.5% BSA) at various concentrations was added to the appropriate well and incubated for 20 minutes. Peptide solution was aspirated out after 20 minutes and wells were washed 5 times with 300 μL of ELISA wash buffer. To detect the biotinylated peptide, 100 μL of streptavidin-HRP (50 ng/mL) was added to each well and incubated for 1 hour. The wells were subsequently washed 5 times with 300 μL of ELISA wash buffer. 100 μL of QuantaBlu Fluorogenic Peroxidase substrate solution was added to each well, incubated for 30 minutes and reaction stopped by adding 100 μL of stop solution. Fluorescent signal from each well was measured using a Biotek Cytation5 plate reader by exciting the fluorophore at […] and measuring emission at 420 nm. Fluorescent signals were plotted as a function of polypeptide concentration.

The target of assay [9] is T3, KAAG1 disordered region peptide, …. The assay is described as above. The protocol:
as §1

Assay [10] addresses T2, CYSLTR2 N-terminal disordered region, …. Briefly: ELISA fluorescence at 10,000 nM peptide divided by the no-scaffold control; the control bar is marked 1x. The protocol:
as §1

In a further assay the target is T6, MERKFMSLQPSISVSEMEPNG (N-terminal biotin).
T6 construct: First of three overlapping 21-mers of the CYSLTR2 N-terminal disordered region
T6 peptide: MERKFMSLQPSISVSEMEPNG
Description: ELISA, scaffold coated on the plate, biotinylated peptide titrated, streptavidin-HRP fluorescence. The protocol: as §1

The target in assay [11] is T7, GMERKFMSLQPSISVSEMEPNGTFSNNNSRNCTIENFKREFFP (biotinylated, position not given).
T7 peptide: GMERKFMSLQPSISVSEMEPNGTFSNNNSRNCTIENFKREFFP
Described as above. On the procedure: as §1

The target in assay [12] is T8, TNFRSF13B disordered region peptide, LPPELRRQRSGEVENNSDNSGRYQ (biotin (position not given)).
T8 peptide: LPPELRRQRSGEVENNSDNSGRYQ
Described as above. The protocol: as §1

Assay [13] addresses T5, CYSLTR2 Epitope SISVSEMEPNGTFSNNNSRNC
The description is as above. On the procedure:
as §1

Assay [14] deals with T9, KCNA6 Epitope QQQEQQPASGGGGQNGQQAMS (biotin (position not given)).
T9 peptide: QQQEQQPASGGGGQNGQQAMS
The assay is described as above. The protocol: as §1

Assay [15] deals with T10, CD40LG Epitope NKEETKKENSFEMQKGDQNPQIAAH (biotin (position not given)).
T10 peptide: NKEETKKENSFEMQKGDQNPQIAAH
The assay is described as above. On the procedure: as §1

Assay [16] has as its target T2, CYSLTR2 N-terminal disordered region, …. Briefly: modified sandwich ELISA (FIGS. 30A and 30B). On the procedure: as §1, with “Fluorescent signals were plotted as a function of polypeptide concentration.” left out
Assay [17] deals with T4, Urotensin-2 receptor (UR-II-R) …. Description: ELISA, scaffold coated on the plate, biotinylated peptide titrated, streptavidin-HRP fluorescence. The protocol:
as §1, with “Fluorescent signals were plotted as a function of polypeptide concentration.” left out

For assay [18], the target named is T2, CYSLTR2 N-terminal disordered region, …. Description: modified sandwich ELISA (scaffold coated, biotinylated peptide, streptavidin-HRP fluorescence).
Assay [19] concerns the target T3, KAAG1 disordered region peptide, …. Description: modified sandwich ELISA, fluorescence grade (key: 50000 < x < 100000, Weak binding).

B1: S078 (designed binder)
chain: GDTRPRFLWQLKFECHFFNGTERVRLLERCIYNQEESVRFDSDVGEYRAVTELGRPDAEYWNSQKDLLEQRRAAVDTYCRHNYGVGESFTVQRRSGGGIKEEHVIIQAEFYLNPDQSGEFMFDFDGDEIFHVDMAKKETVWRLEEFGRFASFEAQGALANIAVDKANLEIMTKRSNYTGGSHHHHHHLE
Take B1: the fluorescent signal in assay [1] is above 400000 fluorescentsignal; in assay [2], 50000 to 100000 fluorescentsignal. The binding result in assay [3] is listed as “no binding (tested: <5000 (fluorescence signal, key))”.

B2: S098 (designed binder)
chain: PENYLFQGRQECNGTQFLERYIYNREEFVRFDEFRAVGRPDEEYWNSQKDILEEERAVPDRMCRHNYELGGPMTLQRRVQPRVNIKADHVSTYAAFVQRPFMFEFDEDEMFYVDLHLEEFGQAFSFEAQGGLANIAILNNNLNTRSNHTQATNDPPHHHHHHLE
B2: the binding result in assay [4] is on record as “no binding (tested: <5000 (fluorescence signal, key))”; in assay [5] it was “no binding (tested: <5000 (fluorescence signal, key))”.

B3: S005 (designed binder)
chain: MIKEEHVIIQAEFYLNPDQSGEFMFDFDGDEIFHVDMAKKETVWRLEEFGRFASFEAQGALANIAVDKANLEIMTKRSNYTPMGDTRPRFLWQLKFECHFFNGTERVRLLERCIYNQEESVRFDSDVGEYRAVTELGRPDAEYWNSQKDLLEQRRAAVDTYCRHNYGVGESFTVQGGSHHHHHHLE
notes: Engineered scaffold derived from MHC II; derived from S007 by removing the immunoglobulin unit; also called v1.1; scaffold v1.1
For the molecule B3, binding in [6] was characterised by a dissociation constant (Kd) of 840 nM. In addition, the binding result in assay [5] is recorded as “no binding (tested: <5000 (fluorescence signal, key))”; in assay [7], “binds”; in [9] it was “binds”. For the same molecule, the EC50 (read off the curve) (in general, the midpoint of the concentration-response curve) in assay [8] was around 300 nM. In addition, the “Relative Binding” value in assay [10] was 18.5 x. In addition, in [10], the “Relative Binding (Fold Change)” value turned out to be 18.5 x.

B4: S177 (designed binder)
chain: B3 chain with I9N, F13Y, M24K, N63H, F96Y, L110N, Y143Q, L150H, Y161K
notes: Computationally derived from S005; 21.92 kDa
Consider B4, for which the binding result was “no binding (tested: 10000 nM)” in the assay with MERKFMSLQPSISVSEMEPNG; “binds” in [11]; “no binding (tested: 10000 nM)” in assay [9]; “no binding (tested: 10000 nM)” in assay [12]; “binds” in assay [13]; “no binding (tested: 10000 nM)” in assay [14]. Moreover, the binding result in assay [15] is listed as “no binding (tested: 10000 nM)”.

B5: S090 (designed binder)
chain: IKEEHSIRQNEMYLNPDQSGLFEFHLDGQPIFRVDMQKKRTKWQLEEFGRFASFEAQGALANIAVDKANLEIMTKRSNQSEAGSHSWQLIFVCEFHEGTESVRLSERCYYNQELSVSFNSDVGEYRAVTELGRPDAEYWNSQKDLLEQRRAAVDTYCRHNYGVGESFTVQRRGGSHHHHHHLE
notes: Rationally designed from v1.1 (S005); By SEC it is a mixture of monomers, dimers and multimers, at least 50% monomer; also called v1.2; scaffold v1.2
On to B5, for which the “fold higher affinity compared to a non-specific protein binder” value in [16] is above 65 fold. In addition, the binding result was “binds” in assay [17], “no binding (tested: 10000 nM)” with MERKFMSLQPSISVSEMEPNG, “binds” in assay [9] and “binds” in [13]. In addition, in [8], the concentration for a half-maximal effect (EC50 (read off the curve)) is around 500 nM. Besides, the “Relative Binding” value in assay [10] was determined as 37.2 x. Moreover, the “Relative Binding (Fold Change)” value in assay [10] is 37.2 x.

B6: S084 (designed binder)
chain: IKEEHVIQQSEYYTNPDQSGEFQFDFDGDEIFHVDMAKKETVWRLEEFGRFASFEAQGALANIAVDKANLEIMTKRSNYTGDTRPRFNWQLKFECHFFNGTERVRLLERCNYNQEESVRFDSDVGEYRAVTELGRPDAEYWNSQKDLLEQRRAAVDTYCRHNYGVGESFTVQRRGGSHHHHHHLE
Molecule B6 displayed a fluorescent signal in assay [1] above 400000 fluorescentsignal. In addition, the binding result is “no binding (tested: <5000 (fluorescence signal, key))” in [3] and “no binding (tested: <5000 (fluorescence signal, key))” in assay [18].

B7: S055 (designed binder)
chain: GSHSMRYNYTSVSRPGRGEPRFLSEGHVDDTQFVRFDSDAASPREEPRAPWIEQEGPEYWDRNTQIYKAQAQTDRESLRNLRGYYNQSEAGSHTLQSIYGCDVGPDGRLLRGHDQYYYDGKDYISLNEDLRSWTAADTAAQITQRKWEAAREAEQRRAYLEGECVEWLRRYLENGKDKLERADGGSHHHHHHLE
On to B7, for which the values for the fluorescent signal in [1] and in assay [19] were above 400000 fluorescentsignal and 50000 to 100000 fluorescentsignal, respectively.

B8: S056 (designed binder)
chain: B7 chain with D30G, T31Q, Q32P, S92L, T94S, Q96N, G100V, Q115H, K121E, D122L
In the case of B8, the fluorescent signal was above 400000 fluorescentsignal in assay [1] and 50000 to 100000 fluorescentsignal in assay [19].
